Measured values from patent publication US8188039 (ARK THERAPEUTICS GROUP, dated 2012).

Target: the molecule itself
Assay: homodimer formation, SDS-PAGE on non-reducing conditions
Description: Purified proteins were analyzed by SDS-PAGE in both denaturing and non-denaturing conditions, staining the gels with Silver Snap Stain KitII (Pierce) or Page Blue Protein Staining Solution (Fermentas). Alternatively, proteins were transferred to nitrocellulose membrane and detected using a VEGF-D monoclonal antibody (MAB286, R&D Systems).
Covalent dimer formation: The ability of VEGF-$D^{\Delta N \Delta C}$, VEGF-$D^{\Delta N \Delta C}$25A and VEGF-$D^{\Delta N \Delta C}$53A to form covalent dimers was evaluated by SDS-PAGE on non-reducing conditions. […] As expected, covalent dimer formation of VEGF-$D^{\Delta N \Delta C}$53A was hindered.

B1: VEGF-D^ΔNΔC (ligand, not shown: small tags and cut ends)
chain: FYDIETLKVIDEEWQRTQCSPRETCVEVASELGKSTNTFFKPPCVNVFRCGGCCNEESLICMNTSTSYISKQLFEISVPLTSVPELVPVKVANHTGCKCLPTAPRHPYSHHHHHH
notes: Amino acids 93-201 of wild-type VEGF-D with N-terminal Flag-tag and C-terminal 6xHis; found partially as a covalent dimer, otherwise non-covalent dimer or monomer; also called mature form of VEGF-D; native VEGF-D^ΔNΔC
Does B1 bind?
Result: binds

B2: VEGF-D^ΔNΔC25A (ligand, not shown: small tags and cut ends)
chain: FYDIETLKVIDEEWQRTQCSPRETAVEVASELGKSTNTFFKPPCVNVFRCGGCCNEESLICMNTSTSYISKQLFEISVPLTSVPELVPVKVANHTGCKCLPTAPRHPYSHHHHHH
notes: Formed more covalent dimer than the native form; also called Cys25 to Ala mutant of VEGF-D^ΔNΔC
Does B2 bind?
Result: binds
